Reference: paper PMC8431494

Molecular target: BST-2 with N-terminal SmBiT (UniProt Q10589)
Assay: split reporter (BiFC, NanoBiT); HEK293T cells in 96-well plates co-transfected 1:1 with plasmids for the Vpu and BST-2 LgBiT/SmBiT fusions; Nano-Glo Live Cell Substrate added, luminescence read in live cells; negative control HaloTag with SmBiT

Sequence of Vpu with C-terminal LgBiT (P05919 whole entry): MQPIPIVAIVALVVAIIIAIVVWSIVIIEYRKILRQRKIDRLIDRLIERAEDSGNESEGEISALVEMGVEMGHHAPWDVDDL
Sequence of UniProt Q10589 (Q10589 1-161): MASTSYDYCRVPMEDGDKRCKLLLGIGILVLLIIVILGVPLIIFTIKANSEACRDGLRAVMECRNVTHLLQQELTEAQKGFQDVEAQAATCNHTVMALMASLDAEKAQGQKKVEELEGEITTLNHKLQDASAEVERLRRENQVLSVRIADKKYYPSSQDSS

Question: “Vpu with C-terminal LgBiT (from UniProt P05919 1-82) (natural protein)” was tested. Which fold luminescence over control 15 min after adding substrate did it give?
Answer: 100 fold

Question: And the fold luminescence over control (Vpu with C-terminal LgBiT and HaloTag with SmBiT)?
Answer: 95 fold
